The results in this text go back to FireProtDB (doi:10.1002/prot.24420).

Where “and” joins values, the source holds several entries; their conditions need not be identical. Equal values may be shown once.

The labels stand for the following.
B1: C426A, Q8GRA2 (parent)
chain: MKKTRFPNKLNTLNTQRVLSKNSKRFTVTLVGVFLMIFALVTSMVGAKTVFGLVESSTPNAINPDSSSEYRWYGYESYVRGHPYYKQFRVAHDLRVNLEGSRSYQVYCFNLKKAFPLGSDSSVKKWYKKHDGISTKFEDYAISPRITGDELNQKLRAVMYNGHPQNANGIMEGLEPLNAIRVTQEAVWYYSDNAPISNPDESFKRESESNLVSTSQLSLMRQALKQLIDPNLATKMPKQVPDDFQLSIFESEDKGDKYNKGYQNLLSGGLVPTKPPTPGDPPMPPNQPQTTSVLIRKYAIGDYSKLLEGATLQLTGDNVNSFQARVFSSNDIGERIELSDGTYTLTELNSPAGYSIAEPITFKVEAGKVYTIIDGKQIENPNKEIVEPYSVEAYNDFEEFSVLTTQNYAKFYYAKNKNGSSQVVYCFNADLKSPPDSEDGGKTMTPDFTTGEVKYTHIAGRDLFKYTVKPRDTDPDTFLKHIKKVIEKGYREKGQAIEYSGLTETQLRAATQLAIYYFTDSAELDKDKLKDYHGFGDMNDSTLAVAKILVEYAQDSNPPQLTDLDFFIPNNNKYQSLIGTQWHPEDLVDIIRMEDKKEVIPVTHNLTLRKTVTGLAGDRTKDFHFEIELKNNKQELLSQTVKTDKTNLEFKDGKATINLKHGESLTLQGLPEGYSYLVKETDSEGYKVKVNSQEVANATVSKTGITSDETLAFENNKEPVVPTGVDQKINGYLALIVIAGISLGIWGIHTIRIRKHD

The variants in the series derive from B1. The following applies: Streptococcus pyogenes; pH 7.2; Thermal; CD; Potassium phosphate 50mM; structure 2XIC; whole UniProt chain shown.
C426A: the “change of melting temperature, mutant - wild type (higher = more stable)” value was -1.7 °C and 0.2 °C; the “unfolding enthalpy (van 't Hoff)” value was 113 kcal/mol and 123 kcal/mol.
For N715A, the “unfolding enthalpy (van 't Hoff)” value was 147 kcal/mol and 85.9 kcal/mol.
On to D595A N715A, for which the “unfolding enthalpy (van 't Hoff)” value was 62.1 kcal/mol and 71.4 kcal/mol.
Take D595A: the “unfolding enthalpy (van 't Hoff)” value was 108 kcal/mol and 115 kcal/mol.
